Assay results reported in patent US10556007B2, “Antibody which binds Lrg1 and methods of use” (UCL Business PLC, priority 2015, dated 2020).
“Also recorded” adds a separate entry of the source.

What was measured:
[1] = test system: Lrg1 (rhLrg1 and liver extracts from mouse, rat, rabbit, monkey, dog and cat); test: Species cross-reactivity ELISA on liver extracts; format: binding; conditions: mAb at 100 nM
Method: Species cross-reactivity was carried out by ELISA in a protocol in which multiwall plates were coated with rhLrg1, and liver extracts from mouse, rat, rabbit, monkey, dog and cat.

[2] = test system: Human umbilical vein endothelial cells (HUVEC); test: Matrigel tube formation assay; format: cell-based; conditions: 100 nM antibody, overnight
Method: The antibodies were tested for their ability to inhibit tube formation in a Matrigel assay. Human umbilical vein endothelial cells (HUVEC) were plated on Matrigel and cultured overnight in the presence of 100 nM mAbs. The blocking rabbit polyclonal Lrg1 antibody was also evaluated. […] Blocking with 4H2 never exceeded ˜50%.

[3] = test system: laser-induced choroidal neovascularisation; test: Rat laser-induced choroidal neovascularisation (CNV); format: in vivo; conditions: Long Evans rats, intravitreal at time of lasering, analysis 7 days later
Method: Several antibodies were tested for their ability to block CNV in the rat. In these experiments mAbs were injected intravitreally at the time of lasering, with eyes being retrieved for analysis 7 days later (FIG. 5). Long Evans rats, aged 6-8 weeks, each received 5 retinal laser burns at the same time as intravitreal delivery of […] mAb or control IgG into both eyes. Four rats were used for each mAb, so a total of 40 lesions were analysed by staining for collagen IV and the neovascular areas quantified. […] Avastin was also tested in the rat laser model (data not shown) and observed to have no effect, consistent with Avastin having low affinity for rat VEGF.

B16/F0 tumours = test: B16/F0 subcutaneous tumour vasculature; format: in vivo, mouse
Method: The adherent cell line B16/F0 was harvested and single-cell suspensions of 1×10^6 cells in 100 μl PBS was injected subcutaneously into the lower back of C57B1/6 mice. Tumours were measured every other day with a caliper and volume was calculated using the formula: V=(4/3)×π×(L/2)×(W/2)×(H/2). The mice were sacrificed at defined time intervals or after the tumors reached 2000 mm^3. Treatment with 15C4 or IgG was started after three days at 50 mg/kg by intraperitoneal injections, and repeated every 3 days. Vessels were identified by CD31 immunohistochemistry on tumour sections (FIG. 11).

B16-F0 tumours = test: B16-F0 tumour, 15C4 with cisplatin; format: in vivo, mouse; conditions: vs IgG and cisplatin
Method: The adherent cell line B16-F0 was harvested and a single-cell suspension of 1×10^6 cells in 100 μl PBS was injected subcutaneously into the lower back of C57B1/6 male mice. Treatment with 15C4 or IgG was started after three days at 50 mg/kg by intraperitoneal injections, and repeated every 3 days. Suboptimal doses of Cisplatin (2.5 mg/kg) were administered to mice bearing tumours with an average size of 0.5 cm^3 every other day by intraperitoneal injections. Tumours were measured with callipers every other day and volume was calculated using the formula: V=(4/3)×π×(L/2)×(W/2)×(H/2).
Cisplatin and IgG or 15C4 treated tumours were immersion fixed in 4% PFA overnight at 4° C. and then immersed in 30% sucrose overnight at 4° C. Tumour tissue was then OCT embedded and frozen for sectioning (40 μm). TUNEL assay was performed using an ApopTag in situ apoptosis detection kit according to manufacturers protocol (Merk Millipore, USA).
The DNA double strand break marker γ-H2AX was stained for in tumour sections, indicating cisplatin-induced DNA damage.

B1: 15C4: mouse monoclonal antibody against human Lrg1, VH SEQ ID NO: 1, VL SEQ ID NO: 2 (antibody, V domains shown)
VH: QVQLQQSGDEVVRPGSSVKISCKASGYTFSGYWMNWVKQRPGQGLQWIGQIYPGDGDTNYNGKFKGKATLTADKSSSTAYMQLSTLTSEDSAIYFCARSITTVVLDYWGQGTTLTVSS
VL: DIVLTQSPVSLAVSLGQRATISCRASQSVSTSGYSFMHWYQQKPGQPPKFLIKYASNLESGVPARFSGSGSGTDFTLNIHPVEEEDTATYYCQHSWEMPLTFGAGTKLELK
modifications: 15C4 Variable Heavy Chain; 15C4 Variable light chain
cross-reactivity with rodent Lrg1 [1]: None of antibodies 4H2, 3A11 or 15C4 exhibited strong cross-reactivity with rodent Lrg1 | blocking of tube formation [2]: 60% | blockade of angiogenesis (CNV) [3]: functional blockade of angiogenesis; also recorded: effective blockade; also recorded: less efficacious than 4H2 in the in vivo rodent models of angiogenesis | endothelial and pericyte co-localisation (B16/F0 tumours; C57BL6 mice, CD31 with αSMA or NG2, vs IgG): increases endothelial and pericyte co-localisation | small vessels / distribution of vessel sizes (CD31) (B16/F0 tumours; C57Bl/6 mice, 50 mg/kg IP every 3 days, vs IgG controls): Fewer small vessels | replication of Lrg1 knockout tumour vessel phenotype (B16/F0 tumours; wild type mice, 50 mg per kg): drives normalisation of tumour vessels; also recorded: These results were mimicked; also recorded: blood vessels are more functional and mature | tumor growth (B16-F0 tumours; 15C4 50 mg/kg IP every 3 days in combination with cisplatin 2.5 mg/kg): significant reduction in tumor growth | apoptosis (TUNEL) (B16-F0 tumours; in combination with cisplatin): Significantly more apoptosis | nuclei with γ-H2AX foci (B16-F0 tumours; in combination with cisplatin): Significantly more nuclei with γ-H2AX foci
